Assay results from patent US20110152166A1, “METHOD OF MODULATION OF PROTEIN PHOSPHORYLATION-DEPENDENT CONFORMATIONAL TRANSITIONS WITH LOW MOLECULAR WEIGHT COMPOUNDS” (priority 2006, published 2011).
Ends that are not written are not given here.

What was measured:
PDK1 [1] = molecular target: T1, PDK1 (Homo sapiens, UniProt O15530); assay: PDK1 kinase activity with S6K tail peptides; format: biochemical
T1 sequence (O15530 1-556): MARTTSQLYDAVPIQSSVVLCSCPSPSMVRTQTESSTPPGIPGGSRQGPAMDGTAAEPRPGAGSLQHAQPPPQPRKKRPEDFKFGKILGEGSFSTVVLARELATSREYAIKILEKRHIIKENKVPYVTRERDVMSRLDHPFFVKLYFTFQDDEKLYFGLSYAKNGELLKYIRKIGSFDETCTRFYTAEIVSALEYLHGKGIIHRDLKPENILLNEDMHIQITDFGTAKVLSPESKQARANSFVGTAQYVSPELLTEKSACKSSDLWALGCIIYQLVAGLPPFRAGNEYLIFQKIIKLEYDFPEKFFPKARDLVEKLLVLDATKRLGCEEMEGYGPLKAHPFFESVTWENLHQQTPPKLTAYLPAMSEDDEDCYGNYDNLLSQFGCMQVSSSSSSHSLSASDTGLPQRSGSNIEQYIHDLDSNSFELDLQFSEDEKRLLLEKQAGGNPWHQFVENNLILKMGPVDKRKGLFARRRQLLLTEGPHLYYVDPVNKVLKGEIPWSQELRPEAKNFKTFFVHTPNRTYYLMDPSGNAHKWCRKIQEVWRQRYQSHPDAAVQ
Protocol: (§1) FIG. 21 (A) Aliquots of S6K1 protein from bar 1, 2, 5 and 6 in FIG. 5B were subjected to immunoblotting with phosphorylation site specific Ab against the activation loop or anti-HA Ab. (B) The kinase activity of PKB<143-479, prephosphorylated by PDK1 in the activation loop, was determined in the presence of increasing concentrations of synthetic PRK2 tail peptides encompassing the HM, which were either nonphosphorylated (PIFtide) or phosphorylated at the tail site (pT958-PIFtide). […] (C) The kinase activity of purified PDK1 was determined in the presence of increasing concentrations of synthetic S6K tail peptide (residues 366-395) that was either phosphorylated at T389 (S371/pT389) or phosphorylated at both 5389 and 5371 (pS371/pT389). Kinase activity is expressed as percent, and data are means+/−SD of 3 independent experiments. (D) Synthetic S371/pT389 S6K tail peptide and pS371/pT389 S6K tail peptide were biotinylated and used to coat streptavidin Sensor Chips. PDK150-360 was injected at different concentrations (0.05-5.4 mM) onto the peptide coated chips. In the inserts, the kinetic constants were obtained by fitting the data to a hyperbola using kaleidagraph software. Representative results from one of several experiments are shown.

PDK150-360 = molecular target: T2, PDK150-360 (Homo sapiens, UniProt O15530); assay: Surface plasmon resonance, PDK1 binding to S6K tail peptides
T2 construct: the catalytic domain of PDK1 comprising residues 50-360
T2 sequence (O15530 50-360): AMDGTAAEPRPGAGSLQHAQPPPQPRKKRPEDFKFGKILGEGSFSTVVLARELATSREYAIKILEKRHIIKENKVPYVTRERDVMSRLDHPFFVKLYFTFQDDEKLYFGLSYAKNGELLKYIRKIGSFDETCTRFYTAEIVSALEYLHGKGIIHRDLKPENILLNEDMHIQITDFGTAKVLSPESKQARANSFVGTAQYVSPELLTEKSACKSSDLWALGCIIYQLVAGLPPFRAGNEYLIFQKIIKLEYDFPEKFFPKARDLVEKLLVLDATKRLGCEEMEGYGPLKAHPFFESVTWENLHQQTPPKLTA
Protocol: as §1
BiaCore analysis was performed as described in Biondi et al. (2000). […]

[2] = molecular target: T3, PDK1 phosphorylation of GST-S6K1-T2[Thr412Glu] (Homo sapiens, UniProt O15530); assay: PDK1 phosphorylation of substrate S6K1 in vitro; format: biochemical; details: compound 100 and 200 μM
T3 construct: GST (N); made in house; host or cells: HEK293
Protocol: FIG. 4—Small compounds designed to bind the HM/PIF-pocket of PDK1 can block the PDK1-dependent phosphorylation and activation of substrates that require docking to the HM/PIF-pocket of PDK1. (A) Effect of compound 1 (100 and 200 μM) on PDK1 phosphorylation of its substrate S6K1. The phosphorylation reaction was performed in vitro with [γ^32P]ATP and then separated on SDS-PAGE followed by exposure to phosphorimager. The radioactive band corresponding to phosphorylated GST-56K1-T2[Thr412Glu] (S6K[412E]) is indicated. (B) PDK1 or PDK1[Val127Leu] (PDK1[V127L]) were pre-incubated with GST-[…]N-SGK1 [Ser422Asp] […] (C) The activity of S6K was measured in vitro after glutathione sepharose purification; aliquots of purified proteins were separated on SDS-PAGE and the level of activation loop phosphorylation was visualized by immunoblotting using phospho-specific antibodies that recognize the phosphorylated activation loop, followed by stripping of the membranes and re-probing with anti-GST to verify the presence of equal amounts of protein. (D) Cells overexpressing GST-56K1-T2[Thr412Glu] were treated as in (C) but S6K activity was measured in vitro after immunoprecipitation of the GST-fusion protein with anti-GST antibodies; the level of S6K expression was analysed by western-blotting of crude extracts. […]

PDK1 [3] = molecular target: T1, PDK1; details: in the presence of PIFtide (Biondi et al., 2000); cited from earlier work

In the case of “S371/pT389: synthetic S6K1 tail peptide (residues 366-395) phosphorylated in the HM”, the “activation of PDK1 by tail peptide (in words)” value (PDK1 [1]) is reported as “activated to the same extent” and the “binding of PDK1 to tail peptide (in words)” value (PDK150-360) is reported as “bound equally well”.

For `O=C(O)CSC(CC(=O)c1ccc(Cl)cc1)c1ccccc1` (stereo not shown) [Compound 1], the “PDK1-catalyzed phosphorylation of S6K1 (in words)” value [2] was “decreased”.

In the case of “REPRILSEEEQEMFRDFDYIADWC [PIFtide, reference compound]”, the “increase of PDK1 stability to temperature” value (PDK1 [3]) is given as 10 °C.
